According to article PMC6602965:

Key:
[1] = target: AhlB (Aeromonas hydrophila strain AL09-71); assay: crystal structure
[2] = target: AhlB (Aeromonas hydrophila strain AL09-71)
[3] = target: AhlC (Aeromonas hydrophila strain AL09-71); assay: SEC; gel filtration of AhlC alone (Supplementary Fig. 2)
[4] = target: AhlC (Aeromonas hydrophila strain AL09-71)
[5] = target: AhlC (Aeromonas hydrophila strain AL09-71); assay: crystal structure; soluble AhlC, two crystal forms (P6(5)22, 2.35 A; P2(1), 2.6 A)
[6] = target: AhlC (Aeromonas hydrophila strain AL09-71); assay: cross-linking; 1.4 mg/ml soluble AhlC with glutaraldehyde (15 min, room temperature), then EDC in 0.1 M MES pH 6 (30 min); SDS-PAGE

| Substance | stoichiometry N [1] | haemolysis of horse erythrocytes by a 1:1 AhlB/AhlC mixture, 1 h, against lysis by osmotic shock with water [2] | stoichiometry N [3] | haemolysis with glutaraldehyde-cross-linked AhlC (mixture of monomeric and dimeric AhlC), reduction of lysis [4] | stoichiometry N [5] | stoichiometry N [6] |
| --- | --- | --- | --- | --- | --- | --- |
| AhlB (natural protein) | 10 |  |  |  |  |  |
| AhlC (natural protein) |  | 50% | 4 | 50 % reduction | 4 | 2 |
